Data taken from publication PMC12388516.

Biological target: bovine thrombin (thrombin reagent) (bovine)

Row | Substance | thrombin time (TT) clotting time of human plasma with bovine thrombin; HLF1V at 0.32 and 3.2 µmol/L; expressed at 30 °C; cut-off 300 s [s] | thrombin time (TT) clotting time of human plasma with bovine thrombin; hirudin HV1 at 0.32 and 3.2 µmol/L; expressed at 30 °C; cut-off 300 s [s]
1 | recombinant hirudin-like factor HLF1V expressed in E. coli strain SHuffle T7 (natural protein) | > 300 | –
2 | recombinant hirudin HV1 expressed in E. coli strain SHuffle T7 (natural protein) | – | > 300
